Experimental findings from patent US20190100587A1 (COVAGEN, published 2019) are described below.

The target in assay [1] is T1, His-tagged human FcγRI (R&D, carrier-free formulation) (human, UniProt P12314 16-288).
T1 construct: also called CD64; human FcγR1
Description: AlphaScreen competition on His-tagged FcγRI; competitor biotinylated B21M LALA IgG1.

The target in assay [2] is T1, His-tagged human FcγRI (R&D, …). Put plainly: AlphaScreen competition on His-tagged FcγRI. For orientation: Bead proximity is the source of the signal in Alpha formats.
For assay [3], the target named is T2, human recombinant FcγRI (Sino Biological) (human, UniProt P12314 16-288, limits assumed).
T2 construct: Amine-coupled to a BIAcore CM5 chip (1500 RU); also called CD64
Put plainly: SPR (BIAcore), FcγRI on chip, 1:1 Langmuir model.

Assay [4] concerns the target T2, human recombinant FcγRI (Sino …). Put plainly: SPR (BIAcore), FcγRI on chip, kinetic (koff/kon). For orientation: In SPR one partner is held on a chip, and binding of the other changes the refractive index at the surface.
For assay [5] the target is unchanged. Description: SPR (BIAcore), FcγRI on chip, steady-state model.
Assay [6] deals with T1, His-tagged human FcγRI (R&D, …). Description: AlphaScreen competition on His-tagged FcγRI; competitor biotinylated B21M LALA IgG1. The source holds these as a separate data set.
Assay [7] addresses T3, human recombinant FcγRIIIA (158F; R&D Systems) (human, UniProt P08637 17-208).
T3 construct: Amine-coupled to a BIAcore CM5 chip (1400 RU); also called CD16A
Put plainly: SPR (BIAcore), human FcγRIIIA (158F) amine-coupled on a CM5 chip, antibody injected.

The target in assay [8] is T4, human CD3 on CD3+ Jurkat cells (human).
T4 construct: whole, on cells
Put plainly: flow cytometry on CD3+ Jurkat cells, bound antibody detected with anti-human IgG-Alexa488.

Assay [9] concerns the target T3, human recombinant FcγRIIIA (158F; R&D …). Put plainly: SPR (BIAcore), FcγRIIIA 158F on chip, 1:1 Langmuir model.
Assay [10] has the same target. Put plainly: SPR (BIAcore), FcγRIIIA 158F on chip, kinetic (koff/kon).
The target is the same in assay [11]. Description: SPR (BIAcore), FcγRIIIA 158F on chip, steady-state model.
The target in assay [12] is T5, His-tagged human FcγRIIB (R&D, carrier-free formulation) (human, UniProt P31994 46-217, limits assumed).
T5 construct: also called CD32B
T5 sequence (looked up): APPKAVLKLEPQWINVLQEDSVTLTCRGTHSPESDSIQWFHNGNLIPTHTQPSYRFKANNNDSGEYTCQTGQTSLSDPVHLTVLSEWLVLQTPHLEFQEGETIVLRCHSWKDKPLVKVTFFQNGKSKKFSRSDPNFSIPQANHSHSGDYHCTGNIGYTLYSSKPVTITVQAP
Put plainly: AlphaScreen competition assay; titrated antibody competes with biotinylated B21M IgG1 for His-tagged human FcγRIIB.

Assay [13] addresses T1, His-tagged human FcγRI (R&D, …). Put plainly: AlphaScreen competition assay; titrated antibody competes with biotinylated B21M LALA IgG1 for His-tagged human FcγRI.

Read-outs that look alike come from different tables or passages of the source.

B1: Anti-PD1 mAb DANAPA IgG1 (antibody)
heavy: QVQLQQSGAELVKPGASVKMSCKAFGYTFTTYPIEWMKQNHGKSLEWIGNFHPYNDDTKYNEKFKGKAKLTVEKSSTTVYLELSRLTSDDSAVYYCARENYGSHGGFVYWGQGTLVTVSAASTKGPSVFPLAPSSKSTSGGTAALGCLVKDYFPEPVTVSWNSGALTSGVHTFPAVLQSSGLYSLSSVVTVPSSSLGTQTYICNVNHKPSNTKVDKKVEPKSCDKTHTCPPCPAPELLGGPSVFLFPPKPKDTLMISRTPEVTCVVVAVSHEDPEVKFNWYVDGVEVHNAKTKPREEQYASTYRVVSVLTVLHQDWLNGKEYKCKVSNKALAAPIEKTISKAKGQPREPQVYTLPPSREEMTKNQVSLTCLVKGFYPSDIAVEWESNGQPENNYKTTPPVLDSDGSFFLYSKLTVDKSRWQQGNVFSCSVMHEALHNHYTQKSLSLSPGK
light: ENVLTQSPAIMSASPGEKVTMTCRASSSVISSYLHWYQQKSGASPKLWIYSTSNLASGVPDRFSGSGSGTSYSLTISSVEAEDAATYYCQQYNGYPLTFGAGTKLEIKRTVAAPSVFIFPPSDEQLKSGTASVVCLLNNFYPREAKVQWKVDNALQSGNSQESVTEQDSKDSTYSLSSTLTLSKADYEKHKVYACEVTHQGLSSPVTKSFNRGEC
notes: DANAPA IgG1 format; also called anti-PD1 antibody; PD-1 specific antibody
By IC50 is commonly meant the concentration at which inhibition is half-maximal. A higher IC50 goes with weaker potency. For the molecule B1, the IC50 in [1] is at least 600 nM.

B2: mAb2 G1 C-LC DANAPA IgG1 (bispecific antibody)
heavy: EVQLVESGGGLVQPGGSLKLSCAASGFTFNTYAMNWVRQAPGKGLEWVARIRSKYNNYATYYADSVKDRFTISRDDSKNTAYLQMNSLKTEDTAVYYCVRHGNFGDSYVSWFAYWGQGTLVTVSSASTKGPSVFPLAPSSKSTSGGTAALGCLVKDYFPEPVTVSWNSGALTSGVHTFPAVLQSSGLYSLSSVVTVPSSSLGTQTYICNVNHKPSNTKVDKKVEPKSCDKTHTCPPCPAPELLGGPSVFLFPPKPKDTLMISRTPEVTCVVVAVSHEDPEVKFNWYVDGVEVHNAKTKPREEQYASTYRVVSVLTVLHQDWLNGKEYKCKVSNKALAAPIEKTISKAKGQPREPQVYTLPPSREEMTKNQVSLTCLVKGFYPSDIAVEWESNGQPENNYKTTPPVLDSDGSFFLYSKLTVDKSRWQQGNVFSCSVMHEALHNHYTQKSLSLSPGK
light: not shown
notes: also called CD3/CD33 bispecific FynomAb with Fynomer G1; FynomAb with the DANAPA IgG Fc
As to B2, the IC50 in assay [1] stood at 206 nM.

B3: mAb2 DANAPA IgG1 (antibody)
heavy: EVQLVESGGGLVQPGGSLKLSCAASGFTFNTYAMNWVRQAPGKGLEWVARIRSKYNNYATYYADSVKDRFTISRDDSKNTAYLQMNSLKTEDTAVYYCVRHGNFGDSYVSWFAYWGQGTLVTVSSASTKGPSVFPLAPSSKSTSGGTAALGCLVKDYFPEPVTVSWNSGALTSGVHTFPAVLQSSGLYSLSSVVTVPSSSLGTQTYICNVNHKPSNTKVDKKVEPKSCDKTHTCPPCPAPELLGGPSVFLFPPKPKDTLMISRTPEVTCVVVAVSHEDPEVKFNWYVDGVEVHNAKTKPREEQYASTYRVVSVLTVLHQDWLNGKEYKCKVSNKALAAPIEKTISKAKGQPREPQVYTLPPSREEMTKNQVSLTCLVKGFYPSDIAVEWESNGQPENNYKTTPPVLDSDGSFFLYSKLTVDKSRWQQGNVFSCSVMHEALHNHYTQKSLSLSPGK
light: QTVVTQEPSLTVSPGGTVTLTCRSSTGAVTTSNYANWVQQKPGQAPRGLIGGTNKRAPGTPARFSGSLLGGKAALTLSGVQPEDEAEYYCALWYSNLWVFGGGTKLTVLGQPKAAPSVTLFPPSSEELQANKATLVCLISDFYPGAVTVAWKADSSPVKAGVETTTPSKQSNNKYAASSYLSLTPEQWKSHRSYSCQVTHEGSTVEKTVAPTECS
notes: Humanized anti-CD3 antibody in DANAPA IgG1 format; also called anti-CD3 antibody mAb2; CD3-specific antibody mAb2
Molecule B3 gave an IC50 in assay [1] of at least 600 nM.

B4: mAb1 DAPA IgG1 (antibody)
heavy: not shown
light: QVVLTQSPAIMSAFPGEKVTMTCSASSSVSYMNWYQQKSGTSPKRWIYDSSKLASGVPARFSGSGSGTSYSLTISSMETEDAATYYCQQWSRNPPTFGGGTKLQITRTVAAPSVFIFPPSDEQLKSGTASVVCLLNNFYPREAKVQWKVDNALQSGNSQESVTEQDSKDSTYSLSSTLTLSKADYEKHKVYACEVTHQGLSSPVTKSFNRGEC
In general, koff refers to a measure of how fast the partners let go of each other. Usually kon stands for the second-order rate constant of association. For orientation: Kd means the free concentration of one partner at which half of the binding sites on the other are occupied at equilibrium, for simple one-to-one binding. The EC50 (read off the curve) is the concentration giving half of the maximal effect. Low values mean higher potency in that assay, high ones lower potency in that assay. For the molecule B4, the “fold stronger binding than mAb1 DANAPA IgG1” value in assay [2] is over 37 fold. Moreover, in assay [3], the koff worked out at 0.0595 s⁻¹ and the on-rate constant (kon) came to 103000 M⁻¹ s⁻¹. Also, the Kd in assay [4] came to 575 nM. Besides, in assay [5], the Kd was found to be 1190 nM. In assay [6], the IC50 worked out at 17.7 nM and the “IC50 relative to IgG1” value worked out at 7.8 fold. Further, in [7], the binding result is “no binding (tested: 2000 nM)”. In addition, the “EC50 (read off the curve)” value in assay [8] is about 0.1 nM.

B5: mAb1 N297A IgG1 (antibody)
heavy: not shown
light: QVVLTQSPAIMSAFPGEKVTMTCSASSSVSYMNWYQQKSGTSPKRWIYDSSKLASGVPARFSGSGSGTSYSLTISSMETEDAATYYCQQWSRNPPTFGGGTKLQITRTVAAPSVFIFPPSDEQLKSGTASVVCLLNNFYPREAKVQWKVDNALQSGNSQESVTEQDSKDSTYSLSSTLTLSKADYEKHKVYACEVTHQGLSSPVTKSFNRGEC
notes: mAb1 with Fc mutation N297A (EU numbering)
As to B5, the “fold stronger binding than mAb1 DANAPA IgG1” value in assay [2] is over 37 fold. In assay [3], the koff is 0.112 s⁻¹ and the kon was determined as 152000 M⁻¹ s⁻¹. The Kd in [4] came out at 737 nM. For the same molecule, in assay [5], the Kd is 1510 nM. Further, in assay [6], the concentration for half-maximal inhibition (IC50) was 23.9 nM and the “IC50 relative to IgG1” value came out at 10.5 fold. Besides, the binding result in assay [7] is “no binding (tested: 2000 nM)”. In addition, the “EC50 (read off the curve)” value in assay [8] is about 0.1 nM.

B6: mAb1 LALA IgG1 (antibody)
heavy: not shown
light: QVVLTQSPAIMSAFPGEKVTMTCSASSSVSYMNWYQQKSGTSPKRWIYDSSKLASGVPARFSGSGSGTSYSLTISSMETEDAATYYCQQWSRNPPTFGGGTKLQITRTVAAPSVFIFPPSDEQLKSGTASVVCLLNNFYPREAKVQWKVDNALQSGNSQESVTEQDSKDSTYSLSSTLTLSKADYEKHKVYACEVTHQGLSSPVTKSFNRGEC
notes: mAb1 with Fc mutations L234A, L235A (EU numbering)
In the case of B6, the “fold stronger binding than mAb1 DANAPA IgG1” value in assay [2] was over 37 fold. In addition, the Kd in assay [5] was found to be 1550 nM. Besides, in [9], the koff worked out at 0.111 s⁻¹ and the kon is 14200 M⁻¹ s⁻¹. Besides, the Kd in assay [10] was determined as 7780 nM. The Kd in assay [11] came out at 13800 nM. Also, in assay [6], the IC50 came to 27.1 nM and the “IC50 relative to IgG1” value is 11.9 fold. Moreover, in assay [8], the “EC50 (read off the curve)” value was about 0.1 nM. Moreover, the binding result in assay [12] is “binds”.

B7: mAb1 DNNDPG IgG1 (antibody)
heavy: QVQLQQSGAELARPGASVKMSCKASGYTFTRSTMHWVKQRPGQGLEWIGYINPSSAYTNYNQKFKDKATLTADKSSSTAYMQLSSLTSEDSAVYYCASPQVHYDYNGFPYWGQGTLVTVSAASTKGPSVFPLAPSSKSTSGGTAALGCLVKDYFPEPVTVSWNSGALTSGVHTFPAVLQSSGLYSLSSVVTVPSSSLGTQTYICNVNHKPSNTKVDKKVEPKSCDKTHTCPPCPAPELLGGPSVFLFPPKPKDTLMISRTPEVTCVVVNVSHEDPEVKFNWYVDGVEVHNAKTKPREEQYDSTYRVVSVLTVLHQDWLNGKEYKCKVSNKALGAPIEKTISKAKGQPREPQVYTLPPSREEMTKNQVSLTCLVKGFYPSDIAVEWESNGQPENNYKTTPPVLDSDGSFFLYSKLTVDKSRWQQGNVFSCSVMHEALHNHYTQKSLSLSPGK
light: QVVLTQSPAIMSAFPGEKVTMTCSASSSVSYMNWYQQKSGTSPKRWIYDSSKLASGVPARFSGSGSGTSYSLTISSMETEDAATYYCQQWSRNPPTFGGGTKLQITRTVAAPSVFIFPPSDEQLKSGTASVVCLLNNFYPREAKVQWKVDNALQSGNSQESVTEQDSKDSTYSLSSTLTLSKADYEKHKVYACEVTHQGLSSPVTKSFNRGEC
notes: mAb1 with D265N, N297D, P329G (EU numbering)
For the molecule B7, the binding result in assay [13] is “binds”.

B8: mAb1 DENQPS IgG1 (antibody)
heavy: QVQLQQSGAELARPGASVKMSCKASGYTFTRSTMHWVKQRPGQGLEWIGYINPSSAYTNYNQKFKDKATLTADKSSSTAYMQLSSLTSEDSAVYYCASPQVHYDYNGFPYWGQGTLVTVSAASTKGPSVFPLAPSSKSTSGGTAALGCLVKDYFPEPVTVSWNSGALTSGVHTFPAVLQSSGLYSLSSVVTVPSSSLGTQTYICNVNHKPSNTKVDKKVEPKSCDKTHTCPPCPAPELLGGPSVFLFPPKPKDTLMISRTPEVTCVVVEVSHEDPEVKFNWYVDGVEVHNAKTKPREEQYQSTYRVVSVLTVLHQDWLNGKEYKCKVSNKALSAPIEKTISKAKGQPREPQVYTLPPSREEMTKNQVSLTCLVKGFYPSDIAVEWESNGQPENNYKTTPPVLDSDGSFFLYSKLTVDKSRWQQGNVFSCSVMHEALHNHYTQKSLSLSPGK
light: QVVLTQSPAIMSAFPGEKVTMTCSASSSVSYMNWYQQKSGTSPKRWIYDSSKLASGVPARFSGSGSGTSYSLTISSMETEDAATYYCQQWSRNPPTFGGGTKLQITRTVAAPSVFIFPPSDEQLKSGTASVVCLLNNFYPREAKVQWKVDNALQSGNSQESVTEQDSKDSTYSLSSTLTLSKADYEKHKVYACEVTHQGLSSPVTKSFNRGEC
notes: mAb1 with D265E, N297Q, P329S (EU numbering)
As to B8, the binding result in [13] was “binds”.
